According to paper PMC5344305:

Target: adaptor protein-2 (AP-2)
Test: pull-down (IP with AP-2 antibody, western blot densitometry)
Conditions: HEK-293 cells transfected with GFP-V0a1 constructs; n=4; parent: est. 1.0; read off a plot

## WT GFP-V0a1 (from UniProt Q93050) C25S
  ratio to parent (arbitrary unit): 0.37
